Values belong to the binder of their own block, whether it stands above or below them.
Tests used:
重组人TIGIT蛋白抗原 [1] = molecular target: T1, 重组人TIGIT蛋白抗原 (human, UniProt Q495A1 21-141, limits assumed); assay: ELISA, TIGIT antigen coated
T1 construct: Made as TIGIT-Fc in 293F, cut with TEV protease and purified; also called TIGIT抗原; 人TIGIT抗原
T1 sequence (looked up): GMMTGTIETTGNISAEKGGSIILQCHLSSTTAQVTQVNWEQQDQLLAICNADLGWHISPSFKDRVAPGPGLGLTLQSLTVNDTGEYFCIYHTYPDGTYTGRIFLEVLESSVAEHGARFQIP

重组人TIGIT蛋白抗原 [2] = molecular target: T1, 重组人TIGIT蛋白抗原; assay: ELISA, TIGIT antigen coated, HRP anti-human IgG
LAG-3抗原 = molecular target: T2, LAG-3抗原 (UniProt P18627 23-450, limits assumed); assay: ELISA, antigen coated
T2 sequence (looked up): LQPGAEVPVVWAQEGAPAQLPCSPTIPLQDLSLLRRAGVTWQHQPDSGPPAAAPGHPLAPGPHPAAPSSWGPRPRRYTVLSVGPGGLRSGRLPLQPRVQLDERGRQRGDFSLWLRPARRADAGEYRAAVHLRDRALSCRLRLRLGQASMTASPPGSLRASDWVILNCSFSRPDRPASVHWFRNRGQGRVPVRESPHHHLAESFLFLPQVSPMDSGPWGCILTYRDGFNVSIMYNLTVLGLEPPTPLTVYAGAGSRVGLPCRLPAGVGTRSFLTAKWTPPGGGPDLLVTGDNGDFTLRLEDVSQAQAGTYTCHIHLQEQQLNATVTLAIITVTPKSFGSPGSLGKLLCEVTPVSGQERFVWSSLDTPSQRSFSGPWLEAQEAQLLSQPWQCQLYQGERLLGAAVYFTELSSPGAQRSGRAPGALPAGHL

CTLA4抗原 = molecular target: T3, CTLA4抗原 (UniProt P16410 36-161, limits assumed); assay: ELISA, antigen coated
T3 sequence (looked up): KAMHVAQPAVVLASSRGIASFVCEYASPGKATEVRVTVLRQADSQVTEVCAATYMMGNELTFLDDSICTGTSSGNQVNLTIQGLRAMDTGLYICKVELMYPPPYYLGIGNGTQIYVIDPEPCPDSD

PD-L1抗原 = PD-L1抗原 (UniProt Q9NZQ7 19-238, limits assumed); assay: ELISA, antigen coated
Sequence of PD-L1抗原 (Q9NZQ7 19-238 limits assumed): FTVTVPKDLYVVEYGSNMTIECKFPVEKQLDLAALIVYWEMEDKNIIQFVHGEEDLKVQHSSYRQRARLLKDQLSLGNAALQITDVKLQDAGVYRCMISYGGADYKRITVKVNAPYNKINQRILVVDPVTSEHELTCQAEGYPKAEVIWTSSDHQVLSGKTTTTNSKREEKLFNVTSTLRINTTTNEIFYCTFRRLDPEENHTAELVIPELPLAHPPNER

PD-1抗原 = PD-1抗原 (UniProt Q15116 25-167, limits assumed); assay: ELISA, antigen coated
Sequence of PD-1抗原 (Q15116 25-167 limits assumed): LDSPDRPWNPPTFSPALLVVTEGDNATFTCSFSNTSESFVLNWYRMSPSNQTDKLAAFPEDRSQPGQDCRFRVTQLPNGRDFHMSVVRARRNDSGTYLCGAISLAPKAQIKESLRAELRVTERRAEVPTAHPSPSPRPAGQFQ

重组人TIGIT蛋白抗原 [3] = molecular target: T1, 重组人TIGIT蛋白抗原; assay: ELISA, human TIGIT antigen coated

EC50 (重组人TIGIT蛋白抗原 [1]): 0.099 µg/mL
EC50 (重组人TIGIT蛋白抗原 [2]): 0.125 µg/mL
B1: 鼠源抗TIGIT单链抗体mT251 (mT251 scFv-Fc重组蛋白) (scFv, V domains shown)
VH: DVKLKESGPSLVKPSQTLSLTCSVTGDSITSGFWNWIRKFPGNKLEYMGYISYSGSSYYNPSLKSRISITRDTSKNQYYLQLNSVTTEDTATYYCAAGDFGNYGYAMDNWGQGTSVTVSS
VL: DVLMTQSHKFMSTSVGDRVSITCKASQRVTTAVAWYQQKPGQSPKLLIYSASYRYTGVPDRFTGSGSGTDFTFTITSVQPEDLAIYYCQQYYSTPLTFGAGTKLEIK

binding result (LAG-3抗原): no binding
binding result (CTLA4抗原): no binding
binding result (PD-L1抗原): no binding
binding result (PD-1抗原): no binding
EC50 (重组人TIGIT蛋白抗原 [1]): 0.0741 µg/mL
EC50 (重组人TIGIT蛋白抗原 [3]): 0.155 µg/mL
B2: 人源化抗体hmT251 (antibody, V domains shown)
VH: DVRLKESGPGLVKPSQTLSLTCTVSGGSITSGFWNWIRKHPGNGLEYIGYISYSGSSYYNPSLKSRVTISRDTSKNQYSLKLSSVTAADTAVYYCAAGDFGNYGYAMDVWGQGTTVTVSS
VL: DVQMTQSPSSLSASVGDRVTITCKASQRVTTAVAWYQQKPGKSPKLLIYSASYRYTGVPDRFTGSGSGTDFTLTISSLQPEDFATYYCQQYYSTPLTFGGGTKVEIK
notes: also called 人源化抗TIGIT抗体hmT251; 人源化单链抗体hmT251

From CN112794909A (GUANGZHOU EXCELMAB BIOMEDICAL TECH CO LTD, dated 2021)
